# Reference: patent publication US20230272048A1
# Key:
# Test in all cases: capture ELISA on Env of lysed AD8 pseudovirus, % of WT
# [1] = molecular target: AD8 Env D368A (HIV-1 AD8, clade B)
# N197A (HIV-1) = molecular target: N197A (HIV-1)
# G472A (HIV-1) = molecular target: G472A (HIV-1)
# [2] = molecular target: AD8 Env V372A (HIV-1 AD8, clade B)
# [3] = molecular target: AD8 Env E370A (HIV-1 AD8, clade B)
# [4] = molecular target: AD8 Env G471A (HIV-1 AD8, clade B)
# R476A (HIV-1) = molecular target: R476A (HIV-1)
# [5] = molecular target: AD8 Env D474A (HIV-1 AD8, clade B)
# [6] = molecular target: AD8 Env G366A (HIV-1 AD8, clade B)
# S364A (HIV-1) = molecular target: S364A (HIV-1)
# A329K (HIV-1) = molecular target: A329K (HIV-1)
# P369A (HIV-1) = molecular target: P369A (HIV-1)
# Q363A (HIV-1) = molecular target: Q363A (HIV-1)
# [7] = molecular target: AD8 Env T455A (HIV-1 AD8, clade B)
# N262A (HIV-1) = molecular target: N262A (HIV-1)
# D185A (HIV-1) = molecular target: D185A (HIV-1)
# [8] = molecular target: AD8 Env N332T (HIV-1 AD8, clade B)
# [9] = molecular target: AD8 Env I371A (HIV-1 AD8, clade B)
# [10] = molecular target: AD8 Env D279A (HIV-1 AD8, clade B)
# S365A (HIV-1) = molecular target: S365A (HIV-1)
# K282A (HIV-1) = molecular target: K282A (HIV-1)
# [11] = molecular target: AD8 Env G473A (HIV-1 AD8, clade B)
# M475A (HIV-1) = molecular target: M475A (HIV-1)
# K121A (HIV-1) = molecular target: K121A (HIV-1)
# [12] = molecular target: AD8 Env D457A (HIV-1 AD8, clade B)
# N276A (HIV-1) = molecular target: N276A (HIV-1)
# N283A (HIV-1) = molecular target: N283A (HIV-1)
# E87A (HIV-1) = molecular target: E87A (HIV-1)
# R419A (HIV-1) = molecular target: R419A (HIV-1)
# L179A (HIV-1) = molecular target: L179A (HIV-1)
# M373A (HIV-1) = molecular target: M373A (HIV-1)
# [13] = molecular target: AD8 Env G367A (HIV-1 AD8, clade B)
# P313A (HIV-1) = molecular target: P313A (HIV-1)
Substance,Env binding (%) at antibody EC50 [1],Env binding (%) at antibody EC50 (N197A (HIV-1)),Env binding (%) at antibody EC50 (G472A (HIV-1)),Env binding (%) at antibody EC50 [3],Env binding (%) at antibody EC50 [4],Env binding (%) at antibody EC50 (R476A (HIV-1)),Env binding (%) at antibody EC50 [5],Env binding (%) at antibody EC50 [6],Env binding (%) at antibody EC50 (S364A (HIV-1)),Env binding (%) at antibody EC50 (A329K (HIV-1)),Env binding (%) at antibody EC50 (P369A (HIV-1)),Env binding (%) at antibody EC50 (Q363A (HIV-1)),Env binding (%) at antibody EC50 [7],Env binding (%) at antibody EC50 (N262A (HIV-1)),Env binding (%) at antibody EC50 (D185A (HIV-1)),Env binding (%) at antibody EC50 [8],Env binding (%) at antibody EC50 [9],Env binding (%) at antibody EC50 [10],Env binding (%) at antibody EC50 (S365A (HIV-1)),Env binding (%) at antibody EC50 (K282A (HIV-1)),further results
PGT121 (antibody),79%,65%,78%,74%,75%,73%,81%,80%,82%,53%,74%,72%,92%,75%,81%,8%,80%,103%,96%,78%,Env binding (%) at antibody EC50 [2]: 83%; Env binding (%) at antibody EC50 [11]: 80%; Env binding (%) at antibody EC50 (M475A (HIV-1)): 84%; Env binding (%) at antibody EC50 (K121A (HIV-1)): 84%; Env binding (%) at antibody EC50 [12]: 108%; Env binding (%) at antibody EC50 (N276A (HIV-1)): 97%; Env binding (%) at antibody EC50 (N283A (HIV-1)): 75%; Env binding (%) at antibody EC50 (E87A (HIV-1)): 73%; Env binding (%) at antibody EC50 (R419A (HIV-1)): 82%; Env binding (%) at antibody EC50 (L179A (HIV-1)): 87%; Env binding (%) at antibody EC50 (M373A (HIV-1)): 90%
b12 (antibody),21%,69%,93%,54%,88%,79%,70%,47%,110%,51%,90%,77%,114%,52%,63%,66%,73%,86%,64%,96%,Env binding (%) at antibody EC50 [13]: 68%; Env binding (%) at antibody EC50 [11]: 96%; Env binding (%) at antibody EC50 (M475A (HIV-1)): 103%; Env binding (%) at antibody EC50 (K121A (HIV-1)): 95%; Env binding (%) at antibody EC50 (P313A (HIV-1)): 95%; Env binding (%) at antibody EC50 [12]: 57%; Env binding (%) at antibody EC50 (N276A (HIV-1)): 86%; Env binding (%) at antibody EC50 (N283A (HIV-1)): 98%; Env binding (%) at antibody EC50 (E87A (HIV-1)): 99%; Env binding (%) at antibody EC50 (R419A (HIV-1)): 74%; Env binding (%) at antibody EC50 (L179A (HIV-1)): 41%; Env binding (%) at antibody EC50 (M373A (HIV-1)): 111%
